Reference: patent US20240294593A1 (Genentech, published 2024)

T1: cynomolgus PD-1-His (cynomolgus monkey)
T1 chain: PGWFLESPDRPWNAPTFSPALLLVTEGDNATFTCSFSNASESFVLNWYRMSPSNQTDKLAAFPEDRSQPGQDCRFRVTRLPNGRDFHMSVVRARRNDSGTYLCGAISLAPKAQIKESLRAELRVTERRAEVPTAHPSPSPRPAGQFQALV


Experiments:
human PD-1-His [1] = target: T2, human PD-1-His (human, UniProt Q15116 25-167, limits assumed); experiment: Octet (BLI); antibody captured on anti-human Fc (AHC) biosensors and dipped into multiple concentrations of human PD-1-His
T2 construct: Antigen of the Octet assays; not shown: His tag

human PD-1-His [2] = target: T2, human PD-1-His; experiment: Octet (BLI), AHC capture of the bivalent mAb, PD-1 in solution
From the text: (§1) In particular, anti-human IgG-Fc (AHC) biosensors were used to capture the test articles and dipped into multiple concentrations of PD-1.

human PD-1-His [3] = target: T2, human PD-1-His; experiment: Octet (BLI), AHC biosensors capture the bivalent mAb, dipped into multiple concentrations of PD-1; KDapp per legend
From the text: as §1

cynomolgus PD-1-His = target: T1, cynomolgus PD-1-His; experiment: Octet (BLI); antibody captured on anti-human Fc (AHC) biosensors and dipped into multiple concentrations of cynomolgus PD-1-His
human PD-1-His [4] = target: T2, human PD-1-His; experiment: Octet
human PD-1-His [5] = target: T2, human PD-1-His; experiment: Octet affinity screen; bivalent IgG1 format; reference mAb C[PD-1]_H1L1

T2 sequence (Q15116 25-167 limits assumed): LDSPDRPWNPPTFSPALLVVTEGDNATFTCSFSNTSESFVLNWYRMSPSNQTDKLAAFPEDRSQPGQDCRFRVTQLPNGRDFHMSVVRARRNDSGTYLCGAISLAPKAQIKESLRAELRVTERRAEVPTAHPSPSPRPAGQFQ

Row | koff (human PD-1-His [2]) | kon (human PD-1-His [2]) | Kd (human PD-1-His [3]) | Binder | other results
1 |  |  |  | XENP28519 (humanized mAb A, bivalent mAb) (antibody, human IgG1, kappa, V domains shown) VH: QVQLQESGPGLVKPSQTLSLTCTVSGHSITSDYAWNWIRQPPGKKLEWIGYISYSGYTTYNPSLKSRVTISRDTSKNQFSLKLSSVTAADTAVYFCARDLDYGPWFAYWGQGTLVTVSS VL: DIQMTQSPSSLSASVGDRVTITCRASENIHNYLAWYQQKPGKSPKLLVYNVKTLADGVPSRFSGSGSGTDYTLTISSLQPEDFATYYCQHFWSSPWTFGGGTKVEIKR | Kd (human PD-1-His [1]): 11.9 nM
2 | 0.0029 s⁻¹ | 105000 M⁻¹ s⁻¹ | 27.6 nM | H1.213_L1.1 (XENP32829) (antibody, human IgG1, kappa, V domains shown, VH substitution L110S/V111I/W112F (Xencor #); L98S/V99I/W100F (Kabat); also called mAb C[PD1]_H1.213_L1.1_IgG1_PVA_/S267K) VH: EVQLVESGGGLVQPGGSLRLSCAASGFTFSSFGMHWVRQAPGKGLEWVSYISSGSSIIYYADSVKGRFTISRDNAKNSLYLQMNSLRAEDTAVYYCARGGRSIFSPDYWGQGTLVTVSS VL: DIVMTQSPDSLAVSLGERATINCKSSQSLLHSGNQKNYLTWYQQKPGQPPKLLIYWASTRESGVPDRFTGSGSGTDFTLTISSLQAEDVAVYYCQNDYSYPFTFGSGTKLEIKR | 
3 |  |  |  | XENP28537 (humanized variant of mAb C, bivalent human IgG1) (antibody, V domains shown, Human IgG1 with E233P/L234V/L235A/G236del/S267K) VH: EVQLVESGGGLVQPGGSLRLSCAASGFTFSSFGMHWVRQAPGKGLEWVSYISSGSSIIYYADSVKGRFTISRDNAKNSLYLQMNSLRAEDTAVYYCARGGRLVWSPDYWGQGTLVTVSS VL: DIVMTQSPLSLPVTPGEPASISCRSSQSLLNSGNQKNYLTWYLQKPGQPPQLLIYWASTRESGVPDRFTGSGSGTDFTLKISRVEAEDVGVYYCQNDYSYPFTFGSGTKLEIKR | Kd (cynomolgus PD-1-His): 42 nM
4 |  |  |  | mAb C[PD-1]_H1_L1.1 (bivalent IgG1) (antibody, V domains shown, Bivalent IgG1 format with E233P/L234V/L235A/G236_/S267K; copies: 2 + 2) VH: EVQLVESGGGLVQPGGSLRLSCAASGFTFSSFGMHWVRQAPGKGLEWVSYISSGSSIIYYADSVKGRFTISRDNAKNSLYLQMNSLRAEDTAVYYCARGGRLVWSPDYWGQGTLVTVSS VL: DIVMTQSPDSLAVSLGERATINCKSSQSLLHSGNQKNYLTWYQQKPGQPPKLLIYWASTRESGVPDRFTGSGSGTDFTLTISSLQAEDVAVYYCQNDYSYPFTFGSGTKLEIKR | Kd (human PD-1-His [4]): 5.46 nM; koff (human PD-1-His [4]): 0.000532 s⁻¹; kon (human PD-1-His [4]): 97300 M⁻¹ s⁻¹; fold improved affinity over WT (human PD-1-His [5]): > 2 fold
5 | 0.00565 s⁻¹ | 114000 M⁻¹ s⁻¹ | 49.4 nM | H1.222_L1.1 (XENP32838) (antibody, human IgG1, kappa, V domains shown, VH substitution W112L/P114S (Xencor #) but W100F/P100bS in Kabat; also called mAb C[PD1]_H1.222_L1.1_IgG1_PVA_/S267K) VH: EVQLVESGGGLVQPGGSLRLSCAASGFTFSSFGMHWVRQAPGKGLEWVSYISSGSSIIYYADSVKGRFTISRDNAKNSLYLQMNSLRAEDTAVYYCARGGRLVLSSDYWGQGTLVTVSS VL: DIVMTQSPDSLAVSLGERATINCKSSQSLLHSGNQKNYLTWYQQKPGQPPKLLIYWASTRESGVPDRFTGSGSGTDFTLTISSLQAEDVAVYYCQNDYSYPFTFGSGTKLEIKR | 
6 |  |  |  | XENP28536 (mAb C[PD-1]_H1L1, bivalent human IgG1) (antibody, V domains shown, Bivalent human IgG1 with E233P/L234V/L235A/G236del/S267K) VH: EVQLVESGGGLVQPGGSLRLSCAASGFTFSSFGMHWVRQAPGKGLEWVSYISSGSSIIYYADSVKGRFTISRDNAKNSLYLQMNSLRAEDTAVYYCARGGRLVWSPDYWGQGTLVTVSS VL: DIVMTQSPDSLAVSLGERATINCKSSQSLLNSGNQKNYLTWYQQKPGQPPKLLIYWASTRESGVPDRFTGSGSGTDFTLTISSLQAEDVAVYYCQNDYSYPFTFGSGTKLEIK | Kd (cynomolgus PD-1-His): 35.8 nM
7 | 0.0061 s⁻¹ | 166000 M⁻¹ s⁻¹ | 36.7 nM | H1.214_L1.1 (XENP32830) (antibody, human IgG1, kappa, V domains shown, VH substitution R109L/V111I/W112L (Xencor #) but R97L/V99I/W100F in the Kabat column: the two columns disagree; also called mAb C[PD1]_H1.214_L1.1_IgG1_PVA_/S267K) VH: EVQLVESGGGLVQPGGSLRLSCAASGFTFSSFGMHWVRQAPGKGLEWVSYISSGSSIIYYADSVKGRFTISRDNAKNSLYLQMNSLRAEDTAVYYCARGGLLILSPDYWGQGTLVTVSS VL: DIVMTQSPDSLAVSLGERATINCKSSQSLLHSGNQKNYLTWYQQKPGQPPKLLIYWASTRESGVPDRFTGSGSGTDFTLTISSLQAEDVAVYYCQNDYSYPFTFGSGTKLEIKR | 
8 | 0.00482 s⁻¹ | 107000 M⁻¹ s⁻¹ | 44.9 nM | H1.215_L1.1 (XENP32831) (antibody, human IgG1, kappa, V domains shown, VH substitution G108A/W112F (Xencor #); G96A/W100F (Kabat); also called mAb C[PD1]_H1.215_L1.1_IgG1_PVA_/S267K) VH: EVQLVESGGGLVQPGGSLRLSCAASGFTFSSFGMHWVRQAPGKGLEWVSYISSGSSIIYYADSVKGRFTISRDNAKNSLYLQMNSLRAEDTAVYYCARGARLVFSPDYWGQGTLVTVSS VL: DIVMTQSPDSLAVSLGERATINCKSSQSLLHSGNQKNYLTWYQQKPGQPPKLLIYWASTRESGVPDRFTGSGSGTDFTLTISSLQAEDVAVYYCQNDYSYPFTFGSGTKLEIKR | 
9 | 0.00557 s⁻¹ | 140000 M⁻¹ s⁻¹ | 39.9 nM | H1.220_L1.1 (XENP32836) (antibody, human IgG1, kappa, V domains shown, VH substitution V111Y/W112F (Xencor #); V99Y/W100F (Kabat); also called mAb C[PD1]_H1.220_L1.1_IgG1_PVA_/S267K) VH: EVQLVESGGGLVQPGGSLRLSCAASGFTFSSFGMHWVRQAPGKGLEWVSYISSGSSIIYYADSVKGRFTISRDNAKNSLYLQMNSLRAEDTAVYYCARGGRLYFSPDYWGQGTLVTVSS VL: DIVMTQSPDSLAVSLGERATINCKSSQSLLHSGNQKNYLTWYQQKPGQPPKLLIYWASTRESGVPDRFTGSGSGTDFTLTISSLQAEDVAVYYCQNDYSYPFTFGSGTKLEIKR | 
